Laboratory results reported in the supplement of paper PMC9233669.
Fewer inactive variants are shown than the library holds.

Key:
biotinyl-Leu-oxazolone = assay: self-aminoacylation, catalytic enhancement (BLO) (fold over background); higher = more active; k-Seq, kA / k0A0; sequences stand for … in GGGAAUGGAUCCACAUCUACGAAUUC…UUCACUGCAGACUUGACGAAGCUG
Outline: (§1)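 The uncatalyzed rate is the low-activity peak of a bimodal Gaussian fit, and catalytic enhancement is median kA divided by it. The kA values came from pseudo-first-order fits, with 1000 bootstraps, of per-sequence fraction reacted measured by streptavidin capture, triplicate qPCR and Illumina sequencing. Mutagenized RNA pools with a 21-nt variable region (0.43 μM) were reacted with each biotinyl-aminoacyl-oxazolone at 2–1250 μM in 50 μL HEPES/NaCl/KCl/MgCl2/CaCl2 buffer with 5% acetonitrile, pH 6.9–7.0, for 90 minutes at room temperature.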

biotinyl-Met-oxazolone = assay: self-aminoacylation, catalytic enhancement (BMO) (fold over background); higher = more active; k-Seq, kA / k0A0; sequences stand for … in GGGAAUGGAUCCACAUCUACGAAUUC…UUCACUGCAGACUUGACGAAGCUG
Outline: as §1

biotinyl-Trp-oxazolone = assay: self-aminoacylation, catalytic enhancement (BWO) (fold over background); higher = more active; k-Seq, kA / k0A0; sequences stand for … in GGGAAUGGAUCCACAUCUACGAAUUC…UUCACUGCAGACUUGACGAAGCUG
Outline: as §1

biotinyl-Phe-oxazolone = assay: self-aminoacylation, catalytic enhancement (BFO) (fold over background); higher = more active; k-Seq, kA / k0A0; sequences stand for … in GGGAAUGGAUCCACAUCUACGAAUUC…UUCACUGCAGACUUGACGAAGCUG
Outline: as §1

biotinyl-Ile-oxazolone = assay: self-aminoacylation, catalytic enhancement (BIO) (fold over background); higher = more active; k-Seq, kA / k0A0; sequences stand for … in GGGAAUGGAUCCACAUCUACGAAUUC…UUCACUGCAGACUUGACGAAGCUG
Outline: as §1

biotinyl-Val-oxazolone = assay: self-aminoacylation, catalytic enhancement (BVO) (fold over background); higher = more active; k-Seq, kA / k0A0; sequences stand for … in GGGAAUGGAUCCACAUCUACGAAUUC…UUCACUGCAGACUUGACGAAGCUG
Outline: as §1

Sequence	self-aminoacylation (biotinyl-Leu-oxazolone)	self-aminoacylation (biotinyl-Met-oxazolone)	self-aminoacylation (biotinyl-Trp-oxazolone)	self-aminoacylation (biotinyl-Phe-oxazolone)	self-aminoacylation (biotinyl-Ile-oxazolone)	self-aminoacylation (biotinyl-Val-oxazolone)
CUACUUAAAACAAACGGUCUG [Fam1A.1 aminoacylation ribozyme variant]	0.933	0.871	0.67	0.836	0.911	0.895
CUUCGCCUAGGUCAUCGGGUG [Fam2.2 aminoacylation ribozyme variant]	4.47	3.41	5.8	37.4	3.75	4.54
AUCGACCUAGGUCAUCGGGUG [Fam2.2 aminoacylation ribozyme variant]	6.35	5.83	6.33	8.6	4.48	4.44
AAGUUUGCGACUAGUCGCAAG [Fam3.1 aminoacylation ribozyme variant]	1.34	1.73	1.67	2.33	1.78	1.34
GUUACCCUGGUCAUCGGGUGA [Fam2.1 aminoacylation ribozyme variant]	92.1	89.7	90.7	503	30.9	36.7
AUUCACCUAGGUCAUCAGUUG [Fam2.2 aminoacylation ribozyme variant]	0.942	0.88	0.698	0.935	0.954	0.939
AUUACCCUGGUUAUAGAGUGA [Fam2.1 aminoacylation ribozyme variant]	16	16.7	19.1	117	6.6	6.47
AUACUUCAAACCAUCGGUCUG [Fam1A.1 aminoacylation ribozyme variant]	0.902	0.774	1.07	0.887	1.1	0.917
AAGUUUGCUAUCAGUCGCAAG [Fam3.1 aminoacylation ribozyme variant]	0.733	0.865	0.615	1.37	0.794	0.931
GUACUUCACACAAUCGGUCUG [Fam1A.1 aminoacylation ribozyme variant]	1.11	1.02	1.67	1.5	1.34	1.3
CUUACCCUGGUCAUGGAGUGA [Fam2.1 aminoacylation ribozyme variant]	3.74	3.59	4.01	10.1	2.16	2.21
AUUAGCCUGGUCAUCGAGUGA [Fam2.1 aminoacylation ribozyme variant]	7.65	7.22	9.2	21.7	4.61	4.55
AAGUUUGCUUAUAGUCGCAAU [Fam3.1 aminoacylation ribozyme variant]	1.27	1.41	1.03	1.74	1.1	1.22
CUACUUCAAACGAUCCGUCUG [Fam1A.1 aminoacylation ribozyme variant]	0.787	0.958	0.755	0.594	0.783	0.808
AUUCAGCUAGGUCCUCGGGUG [Fam2.2 aminoacylation ribozyme variant]	9.02	6.2	6.56	55.4	4.67	4.46
GUACUUCAGACAAUCGGUCUG [Fam1A.1 aminoacylation ribozyme variant]	1.32	1.2	1.56	4.98	1.22	1.06
AUUCGCCUACGUCAUCGGGUG [Fam2.2 aminoacylation ribozyme variant]	7.11	5.54	4.12	44.1	3.15	3.86
ACUACCCUGGUCGUCGAGUGA [Fam2.1 aminoacylation ribozyme variant]	1.95	1.49	0.701	6.66	1.17	1.19
AUUACGCUGGUCAUCGAGUAA [Fam2.1 aminoacylation ribozyme variant]	1.26	1.43	1.8	0.975	1.6	1.53
AAGUUUGCUAAUCGUCACAAG [Fam3.1 aminoacylation ribozyme variant]	0.881	0.828	0.982	1.3	0.966	0.978
CCACAUUUCAAGCUAUCGGUC [Fam1B.1 aminoacylation ribozyme variant]	1.16	1.1	1.03	1.03	1.4	1.33
CCACUCUUCAAGCAAUUGGUC [Fam1B.1 aminoacylation ribozyme variant]	0.729	0.63	0.809	0.992	0.831	0.95
UUUACCCUGGUCAUCCAGUGA [Fam2.1 aminoacylation ribozyme variant]	4.72	4.91	6.23	15.7	3.12	2.98
CCACACUUCGAGCAAUCGGUA [Fam1B.1 aminoacylation ribozyme variant]	0.849	0.716	1	0.573	0.715	1.06
CCACACUUGAAGCCAUCGGUC [Fam1B.1 aminoacylation ribozyme variant]	0.811	1.24	1.6	0.99	1.24	1.47
AUUACCCUAGUCAUCGAGUGA [Fam2.1 aminoacylation ribozyme variant]	5.12	4.92	6.3	18	2.89	3.05
